Reference: patent US6855549B1, “Methods and compositions for increasing the infectivity of gene transfer vectors” (The University of Iowa Research Foundation, priority 1998, dated 2005)

Legend:
epithelia = settings: in vivo; cited from earlier work
airway epithelial cells = test: BrdU staining of KGF-treated airway cultures; type: cell-based, human; settings: KGF 100 ng/ml, two consecutive days
Procedure: Identification of proliferating airway epithelial cells were performed using bromodeoxyuridine (BrdU) labeling reagents from Zymed Laboratories (South San Francisco, Calif.). Cells were treated with recombinant human keratinocyte growth factor (rKGF; Chiron, San Diego, Calif.) at 100 ng/ml for two consecutive days. The cells were then pulse labeled for 12 hr with a 1:100 dilution of the BrdU labeling reagent prior to fixation in 10% neutral buffered formalin. Histochemical staining of BrdU incorporation into nuclei was performed according to the manufacturer's instructions. Cells were counterstained with hematoxylin and the cell culture filters were examined by en face microscopy of the apical surface.

[1] = tested on: human bronchial epithelial cells; type: cell-based
Procedure: Primary human airway epithelial cells were collected by enzymatic digestion of bronchial samples from lung transplants as previously described (Kondo et al., 1991; Zabner et al., 1996). Isolated airway primary cells were seeded at a density of 5×10^5 cells/cm^2 onto collagen-coated Millicell-HA culture inserts (Millipore, Bedford, Mass.). Primary cultures were grown at the air-liquid interface for more than 2 wk, at which time differentiation into a mucociliary epithelium occurs. The culture medium, used to feed only the basolateral side of the cells, contained 49% Dulbecco's modified Eagle's medium (DMEM), 49% Ham's F12, and 2% Ultraser G (BioSepra, Cedex, France).
Recombinant AAV virus was produced by a CaPO4 co-transfection protocol and was purified through three rounds of isopycnic cesium chloride ultracentrifuigation, as previously described (Duan et al., 1997). […] Typical yields were 1×10^9 particles/μl, determined on the basis of DNA slot-blot hybridization assays against plasmid standards. […] Viral preparations were evaluated for the contamination of wild type AAV (wtAAV) by immunocytochemical staining of AV.GFP3ori/Ad.CMVLacZ (Duan et al., 1998)-coinfected 293 cells with anti-Rep antibodies (American Research Products, Belmont, Mass.). […]

B1: KGF: recombinant human keratinocyte growth factor (protein, UniProt P21781 32-194, looked up)
Fibroblast growth factor 7: CNDMTPEQMATNVNCSSPERHTRSYDYMEGGDIRVRRLFCRTQWYLRIDKRGKVKGTQEMKNNYNIMEIRTVAVGIVAIKGVESEFYLAMNKEGKLYAKKECNEDCNFKELILENHYNTYASAKWTHNGGEMFVALNQKGIPVRGKKTKKEQKTAHFLPMAIT
mutagenicity (epithelia): is not mutagenic
cell proliferation by BrdU incorporation (airway epithelial cells): significant increases in cell proliferation
long-term (40 day) gene expression after KGF ([1]; infection from the basal side): inhibited twofold
efficiency of rAAV transduction after KGF ([1]; virus apical or basolateral): did not increase the efficiency of rAAV transduction
